Test results reported in WO2011095545A1 (dated 2011).

B1: EXPGMP 80B10 (as a fusion with the Nanobody 2D3) (other)
chain: EVQLVESGGSLVQPGGSLRLSCAASGFTFDDYAMSWVRQVPGKGLEWVSSINWSGTHTDYADSVKGRFTISRNNANNTLYLQMNSLKSEDTAVYYCAKNWRDAGTTWFEKSGSAGQGTQVTVSSGGGGSGGGSYWWERRDWDFDVFGGGTPAAAEQKLISEEDLNGAAHHHHHH
notes: Nanobody-peptide fusion, expressed in E. coli, purified by IMAC/SEC; also called 2D3-9GS-EXP80B10
B2: 5F7-9GS-EXP89D03-9GS-EXP89D03 (other)
chain: EVQLVESGGGLVQAGGSLRLSCAASGITFSINTMGWYRQAPGKQRELVALISSIGDTYYADSVKGRFTISRDNAKNTVYLQMNSLKPEDTAVYYCKRFRTAAQGTDYWGQGTQVTVSSGGGGSGGGSWWEQDRDWDFDVFGGGTPGGGGSGGGSWWEQDRDWDFDVFGGGTP
notes: Fusion of Nanobody 5F7 with a tandem repeat of peptide 89D03; also called EXP486

Key:
human serum albumin = molecular target: T1, human serum albumin (human, UniProt P02768 25-609); experiment: SPR (BIAcore 3000), HSA on CM5 chip, 2D3-peptide fusion injected
T1 construct: Bought protein (Sigma, 99% pure); also called HSA

cynomolgus serum albumin = molecular target: T2, cynomolgus serum albumin (cynomolgus monkey, UniProt A2V9Z4 25-608); experiment: SPR (BIAcore 3000), 200 nM and 1 uM fusion injected on CM5 chip with ~900 RU cynomolgus serum albumin
T2 construct: also called cyno serum albumin
T2 sequence (A2V9Z4 25-608 limits assumed): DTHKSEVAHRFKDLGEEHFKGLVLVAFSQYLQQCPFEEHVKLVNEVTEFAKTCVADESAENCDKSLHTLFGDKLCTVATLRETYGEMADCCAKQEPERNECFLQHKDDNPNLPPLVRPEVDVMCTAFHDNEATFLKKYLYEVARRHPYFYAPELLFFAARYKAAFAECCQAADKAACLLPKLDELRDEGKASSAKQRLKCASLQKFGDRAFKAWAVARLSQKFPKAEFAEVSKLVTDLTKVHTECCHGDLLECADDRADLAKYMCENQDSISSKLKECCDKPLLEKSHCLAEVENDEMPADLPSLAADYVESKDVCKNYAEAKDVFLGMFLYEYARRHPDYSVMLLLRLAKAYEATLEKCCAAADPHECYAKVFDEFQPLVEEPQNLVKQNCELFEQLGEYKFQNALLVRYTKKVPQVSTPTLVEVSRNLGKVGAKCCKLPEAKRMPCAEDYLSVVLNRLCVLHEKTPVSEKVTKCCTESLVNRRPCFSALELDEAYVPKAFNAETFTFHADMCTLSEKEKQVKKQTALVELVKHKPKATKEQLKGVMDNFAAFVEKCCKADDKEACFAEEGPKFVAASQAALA

T1 sequence (P02768 25-609 limits assumed): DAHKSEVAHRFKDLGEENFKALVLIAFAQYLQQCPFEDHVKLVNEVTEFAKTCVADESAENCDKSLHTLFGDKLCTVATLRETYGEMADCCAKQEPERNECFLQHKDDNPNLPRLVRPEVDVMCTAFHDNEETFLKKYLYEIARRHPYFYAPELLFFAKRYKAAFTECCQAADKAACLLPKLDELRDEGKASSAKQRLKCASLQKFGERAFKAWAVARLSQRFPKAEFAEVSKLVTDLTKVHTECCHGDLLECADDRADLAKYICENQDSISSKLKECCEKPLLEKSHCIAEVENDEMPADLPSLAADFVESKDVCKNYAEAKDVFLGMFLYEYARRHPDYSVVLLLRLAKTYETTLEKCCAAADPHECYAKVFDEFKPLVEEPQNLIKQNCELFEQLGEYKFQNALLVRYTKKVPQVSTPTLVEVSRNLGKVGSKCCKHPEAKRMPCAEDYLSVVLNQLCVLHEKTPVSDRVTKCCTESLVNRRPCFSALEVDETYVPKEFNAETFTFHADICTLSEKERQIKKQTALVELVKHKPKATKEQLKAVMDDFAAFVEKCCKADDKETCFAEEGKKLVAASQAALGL

Binder	Kd (human serum albumin) [nM]	binding result (cynomolgus serum albumin)
B1	16	–
B2	–	binds
